Experimental findings from the DeepSol protein solubility set are described below.

The nature of the series: soluble on expression in E. coli; label from the status in PepcDB or PDB records.
Regarding “MQNLSSTQREILLALVDLYNRYKRMIKSKEVADVIGKDEGTVRNIILSLKVLGLIESKPGPNGGYVPTLKAYESIKNPIITPVFDQISLYKDGLETDIKISNIELLDITNPSGNKVLLRVNGDLRKLKVGDSIKIGPIPYTRLVIEGVVIHIDDTRKELIADVTRMISIPKVQIKSLISKKLVALKPDMTLKEASQIFYKEGIRGAPVLDNEGKTLGILTTADIIKAFFEGKYDAKVSEYMKSNVISIRDEDDILTAIKKMLIYNVGRLLVYNQDQKVIGIVTRTDILKTIAGLEELITP”, the “soluble on expression in E. coli” value is listed as “soluble”.
As for “MGSDKIHHHHHHMKILHYIPSIDRTSGGVGTYMQLLTAELGKLVELHVVTHKETNPLELKNCHVHFIENNNPFLPKEKKNFIFLLNEIKPDVFHANCCWLPMSAYTAMWARNAGYHVVYTPHGMLEPWIMKRHYWTKKFPASLLFQKRGIQIANVIHATAESEKHNLTQLGWNNNIEVIPNCVEIDKITMKESWIRNKNILFLSRVHVKKGINFLIEATANLKTELQGYTINIAGEGEESYINELKQLASKLGVENLIHFIGGVYGDKKWELFKKADLFVLPTHSENFGIVVAEALACGTPVITTQGTPWQELESYHCGWWTEIGTEATTKALKEFLQCTETQLEQMGKNGRKLIEEKYSSQKVAQDMVELYKKVCL”, the entry is “not soluble”; as for “DQESCKGRCTEGFNVDKKCQCDELCSYYQSCCTDYTAECKPQVTRGDVFTM”, “soluble”; as for “MTAFLPPNLLALFEARPPVQYLPPCQDLLVDKNAKRAPMTGVAQYIQLFEDPKDTPAKIPVVTKAEAKEEKRRQKDELLAYKVEQGIATWNPAENPRASEDPYRTLFVGRINYETSESKLRREFEAYGKIKKLTMVHDEAGKPRGYAFIEYSDKAEMHTAYKKADGIKVDGKRLVVDYERGRTQKTWLPRRLGGGKGDTRKTREAKSVIEEREIASGFGGGYEDRDRERSGSRDRRQDSYRNGGGNDRDRRESSGGFRDNRGGGGGFGGGGRDRFNDRSGGGGYGGDRDRGGDRGGDRGGSRYSTGGGSGGGYRSGGGSSGGGGGGRYGDRR”, “not soluble”.
The value for “MTSLYLASGSPRRQELLAQLGVTFERIVTGIEEQRQPQESAQQYVVRLAREKARAGVAQTAKDLPVLGADTIVILNGEVLEKPRDAEHAAQMLRKLSGQTHQVMTAVALADSQHILDCLVVTDVTFRTLTDEDIAGYVASDEPLDKAGAYGIQGLGGCFVRKINGSYHAVVGLPLVETYELLSNFNALREKRDKHDG” was “soluble”; that for “MVKKAAATSKQATYHSDEIEMKEEVVLNTYDECTDYVEYDDTKQFDINEYCDQIQVAMVNESDDGMTLEFDITRIEAPIANALRRVLIAEVPTMALEKIYLYQNTSVIQDEVLCHRLGLLPLRVDPRGFQFPKEKVVGINEKGVDCDEEPEGDPAKNLIFKINVSCTKNRNAVPTATDPKQLYHNSSVYSRAFEWVPIADQKTQFTEEAHPRMVSDDILVAKLRPGQEIEASCHAVKGIGRDHAKFSPVATASYRLLPTIRLNAEISGEAAERLKSVFSEGVIAIEKKGAKRIAVVKDARKDTCSRNVFRHEDLSKVVQLGKNKQHFIFSVESTGALKSSELVVEACKVMEIKCRSLRKQIEALIQ” was “not soluble”; that for “MSLDVISELVKKNGSKILLIVLDGLGGLPVKEGKTELELAKTPNLDKLVKNSATGLHIPVDWGITPGSGPGHLGLFGYDPIKYQIGRGILEALGLGIDVKDTDIAVRGNYATVEYRNGKPIVVDRRAGRIPTEENKRITAKLQEAIKEIDGVQVIIKPGMEHRLAIVFRFPEKLSPGSDAINDTDPQQVGKEPLEPKGENPNAEKVAEVVRKFIQRATEILRNEPKANYILLRGFSQKPDIPTMEERFGVKPCCIAVYPMYKGLASLVGMDVIEFEGSTIQDEIDTLKKVWNEYDYFFVHIKKTDSYGEDGNYEGKVSVIEDFDAHLPQFLELKPDVLAITGDHSTPSILKGHSWHPVPLLIHSPYVLGGTSERFTERECLKGELGIIPAVKITQLLLANALRLKKYGAEGHHHHHH” was “soluble”.
As for “MGSDKIHHHHHHMYNPVGVAAIGLGRWAYVMADAYTKSEKLKLVTCYSRTEDKREKFGKRYNCAGDATMEALLAREDVEMVIITVPNDKHAEVIEQCARSGKHIYVEKPISVSLDHAQRIDQVIKETGVKFLCGHSSRRLGALRKMKEMIDTKEIGEVSSIEAVFSNERGLELKKGNWRGEPATAPGGPLTQLGVHQIDNLQFLLGPVARVFNFGKPMYTEVENITVNQTLLEFEDGKQAYLGTNWACPGVFSINVYGTKANLFYQLDFSWWSNSDVTDEHSTLIKREFASMSDDPDNRILRDVKVDFESVDHLRVEVEEVADVIRNGGETEIGAEASLRNLAVVLAAVKSVHEKRPVEIAEIIG”, the entry is “not soluble”; as for “MGSDKIHHHHHHMSTVIDSNIFNTLVSNTFYSCPLGGAIYDTEGNLIDLNKAMFAHFSLADKHDFIIEHLFNNIVLTDSLKSSLRKGDAIICEEPVTFKVEPIYTDEQGLSGYTLWLTQQGEKETDRENKLLMGQLNESRILMRQALEDGKLAAYSFSFDRFSTCDKRHCNRCFQFYGTTNTLLDKNRFICRALSSVRKPEDSLDFFYLFNKIRDEKLSSHNVTFHLRNQDGTYKMYEISGKSMDIDESGTPHVIIGSIIEKENDELAIADHQKSKDLSLLKSTFLANMTHEIRTPLNAIVGFSDMLGLEDDPEMREQYISMIKENNTALLELINDTLEMSRIESNTINWSYEDVNPLAIMHDVYEYASPRISKNVRLILDDSPNVSLHTDKHKLMLILKKLLSNALRYTEKGEIHFGYQSLYPVSVQFYVSDTGNGIPKDKLGHIFERFVQLNEFQPGTGLGLSICKGLVTAMGGTIWVNSEEGKGSTFSFKLPITPPDTIS”, “not soluble”; as for “MLERILSRENLIQALERVEKNKGSYGVDEMDVKSLRLHLHENWTSIRNEIIEGSYFPKPVRRVEIPKPNGGVRKLGIPTVMDRFLQQAIAQILTQLYDPTFSERSFGFRPHRRGHNAVRQAKQWMKEGYRWVVDIDLEKFFDKVNHDRLMRKLSSRIQDPRVLQLIRRYLQTGVMERGLVSPNTEGTPQGGPLSPLLSNIVLDELDNELEKRGLKFVRYADDCNIYVRSKRAGLRIMESVTSFIENRLKLKVNREKSAVDRPWNRKFLGFSFTRGKDPKMRVSKESVKRLKQRIRELTSRRHSMKMSDRLRRLNRYLTGWLGYYQLVDTPSILAQIDAWIRRRLRMIRWKEWKTTSARQKNLVRLGIKKAKAWQWANSRKGYWRVAHSPIMDYALNSEYWKGQGLMSLAERYQTRRWTLEHHHHHH”, “not soluble”.
“STNVFIMGHVNPDIDCIGGAIGLYSVLSSKVDGDVHIVLDDTSSSVEGIVNRLVENYDEYKNVFMRSSDCIELIDQGSILILDDVNSRNYVLSEKILEEISKVVVIDHHRRAANYIKDTILSYIESYASSTSELVTEMIQYMDENHKLKPIEAEALLAGIVVDTKNFSFKTGVRTFEAAAFLRKNGADTIEIKKLFSNDL”: the “soluble on expression in E. coli” value is “not soluble”.
The value for “NKNFTWTTELTVSRNKNKVEKLPNTVQGFDTRNLTSIQEGYSLYSYWVYNQTGVNSQTGAIEIEDVNKDGKITTADRKIMGSVFPKLFGGFNNKFTYKGIDLGIFFIYSYGNKTWNQNEALGEQGGTLGDNRVLMAGQLDRWTTPGQETMVPKLTAANYQYFEVSRFLEDASFIRLRSLTLGYTLPKKWSSAVKTEKIRFYFTGTNLLLITKYTGSDPESNLGQGNLQGYDYDTPPQPRTIQFGLNLTL” was “not soluble”; that for “MIRKNKWLRFQTVCRYIPLSLKNHNRLVIFVCQRIEWRYIFSTNTGHPLKNTCEMTGTDFSTDGLMRRYVTGGNNQWHTVASLHMTIMMNRIGTVADRQPKARKVKHGEMTLEHHHHHH” was “not soluble”.
For “SPSETLWEIAKAEVEKRGINGSEGDGAEIAEKFVFFIGSKNGGKTTIILRCLDRDEPPKPTLALEYTYGRRAKGHNTPKDIAHFWELGGGTSLLDLISIPITGDTLRTFSLVLVLDLSKPNDLWPTMENLLQATKSHVDKVIMKLGKTNAKAVSEMRQKIWNNMPKDHPQDHELIDPFPVPLVIIGSKYDVFQDFESEKRKVICKTLRFVAHYYGASLMFTSKSEALLLKIRGVINQLAFGIDKSKSICVDQNKPLFITAGLDSFGQIGSPPVPENDIGKLHAHSPMELWKKVYEKLFPPKSINTLKDIKDPARDPQYAENEVDEMRIQKDLELEQYKRSSSKSWKQIELDS”, the “soluble on expression in E. coli” value is “soluble”.
The value for “MTTTGLRPRLNVRQRKDTGYLPHSSPFSLQFRPAILYSDGYLPQVPEDKNETDKIHTPRIVPQKLERTPSDTSRSRGCHCFYAGWL” was “not soluble”.
